Experimental data reported in article PMC5358783, “Structural insights into the regulation of Bacillus subtilis SigW activity by anti-sigma RsiW” (PLoS ONE, 2017).

Biological target: T1, cytoplasmic domain of Bacillus subtilis anti-sigma RsiW (residues 1-80), reduced, zinc-bound (B. subtilis 168 strain, UniProt Q45588 1-80)
T1 construct: RsiW, anti-sigma-W factor of Bacillus subtilis 168, cytoplasmic domain, residues 1-80; Coordinates one zinc ion through C3, H30, C34 and C37 (CHCC motif); The Hisx6-thioredoxin tag was removed with TEV protease after the first IMAC step; also called RsiW_(cyto); RsiWcyto; not shown: His6, N-terminal, cleaved; thioredoxin, N-terminal, cleaved
T1 sequence (looked up): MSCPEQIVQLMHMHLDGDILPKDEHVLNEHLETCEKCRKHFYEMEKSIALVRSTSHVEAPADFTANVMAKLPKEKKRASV
Assay: SEC-MALS; purified SigW/RsiWcyto complex injected into a Superdex200 analytical column with inline DAWN HELEOS MALLS and Optilab rEX refractive index detectors; molecular weight of the complex approximately 31.5 kDa
Conditions: both partners purified

stoichiometry N: 1 SigW per RsiWcyto
B1: Bacillus subtilis SigW (residues 1-187) (natural protein, B. subtilis 168 strain, UniProt Q45585 1-187, looked up)
chain: MEMMIKKRIKQVKKGDQDAFADIVDIYKDKIYQLCYRMLGNVHEAEDIAQEAFIRAYVNIDSFDINRKFSTWLYRIATNLTIDRIRKKKPDYYLDAEVAGTEGLTMYSQIVADGVLPEDAVVSLELSNTIQQKILKLPDKYRTVIVLKYIDELSLIEIGEILNIPVGTVKTRIHRGREALRKQLRDL
notes: SigW, ECF (group IV) sigma factor of Bacillus subtilis 168, residues 1-187; domains sigmaW2 (residues 3-95) and sigmaW4 (residues 125-187) joined by a disordered loop (96-125); No tag on SigW itself (cloned in MCS2 of pET-DUET1); it is purified through the His-tagged RsiWcyto; A selenomethionine-labelled complex (E. coli B834 (DE3)) was used for phasing only; also called sigma factor SigW; ECF …
